# The DeepSol protein solubility set
# Assay: soluble on expression in E. coli; label from the status in PepcDB or PDB records
row,Sequence,soluble on expression in E. coli
1,MSLYLIVGAYPSTPQVMKNIKMTSDALKKKESLICLNVLSKYNPEKHSNTSKRLPVKFFSGVLIVLMNTDNWASLEKRFSSEIANWRSGGNVICIAIGELGKFKGNDTYYLKTLQIALMNVDDNWIPADSSYELTMLNYLHKHERSFIKPLRYDASNNDVFPDFCLTDIGSTELFPIEVFGMDTASYLARKVIKESYYNERYGKDGWASWEAPAGPLPICPIRPAVNYQMLLEGHHHHHH,not soluble
2,MGSDKIHHHHHHMTDWHFYEPARGHALRHDPLNAIVAPRPIGWISTISSDGVRNLAPYSFFNLFSYKPPIVGFCSLGAKDSLANARDTGEFVWNLATRPLVEAMNASAAMVPAHVDEFELAKLETLPSAKVRPARVAASPVQFECVVTQIVQLEAQGGAALPAWLVLGEAVAIHIDRQLITNGVYQTAQARPILRGGGPADYFEIGAGQLFTLERPGD,not soluble
3,MTSAEMTSPNNNSEHQAIAKMRTMIEGFDDISHGGLPIGRSTLVSGTSGTGKTLFSIQFLYNGIIEFDEPGVFVTFEETPQDIIKNARSFGWDLAKLVDEGKLFILDASPDPEGQEVVGGFDLSALIERINYAIQKYRARRVSIDSVTSVFQQYDASSVVRRELFRLVARLKQIGATTVMTTERIEEYGPIARYGVEEFVSDNVVILRNVLEGERRRRTLEILKLRGTSHMKGEYPFTITDHGINIFPLGAMRLTQRSSNVRVSSGVVRLDEMCGGGFFKDSIILATGATGTGKTLLVSRFVENACANKERAILFAYEESRAQLLRNAYSWGMDFEEMERQNLLKIVCAYPESAGLEDHLQIIKSEINDFKPARIAIDSLSALARGVSNNAFRQFVIGVTGYAKQEEITGLFTNTSDQFMGAHSITDSHIATITDTIILLQYVEIRGEMSRAINVFKMRGSWHDKAIREFMISDKGPDIKDSFRNFERIISGSPTRITVDEKSELSRIVRGVQEKGPES,soluble
4,MTAAATTTVSTAAAMQTAALASLYSQAAVAIINNKGDVGKALKDLGTSDTVKQIVTSALTAGALNQMGADIAQLNSKVRTELFSSTGNQTIANLGGRLATNLSNAGISAGINTAVNGGSLKDNLGNAALGALVNSFQGEAASKIKTTFSDDYVAKQFAHALAGCVSGLVQGKCKDGAIGAAVGEIVAESILGGRNPATLSDAEKHKVISYSKIIAGSVAALNGGDLEHHHHHH,not soluble
5,MGSDKIHHHHHHMNILIKIRELTNLTNSEKELANYIVVNPKKTLQFKPKELAQAAFVSAATIYRLINKLGLNGIGELKIEIASSLRETNEEKEINYDYPILESDTPYQIMTNLNQIYKGTIDETLNNADPEELVKIGEKLIKAKTIDVYAASANLFFAQNFKFQMQEIGVLVNVPEEDYIQSLSAANSDKDHIAIVVSYGGRSRTLQRVVKILSENDVDIILITSMQANPLVEFATHKIYMASAENHYNKVSSFSTRQSLLSIFDTLYSVYFNHDYEKNIQYKTTNYQKMNSELE,not soluble
6,MGSDKIHHHHHHMAQEALCRKRHEGFNGSMVGVSLADLIQLKGTNRFSGCISVEFGGRCGVIFFQDGEIVHAEKGSCEGEEALQRIMRWPGGRFTAYPHLATDRHSIRKNRQHLLLDAHRAMDERHRHVDPKGERAEQTPLRERIRAIGMVSDAITLDFDGVPTDEKSPSADRLAAGACFLARLADRIGSRLGTGSPTSMVLEGTREHLFIYTGKHHLLAVAAGADHQPPMVEEAIRRAVQTA,not soluble
7,WILASTTEGAPSVAPLNVTVFLNESSDNVDIRWMKPPTKQQDGELVGYRISHVWQSAGISKELLEEVGQNGSRARISVQVHNATCTVRIAAVTRGGVGPFSDPVKIFIPAH,soluble
8,MGSDKIHHHHHHATSKHVYGENENPYLKTNADAVVSTKAEFPISRLEAKTVKLTDYAEKFHTYLGMTVDETLAALSNGSVVFYPINISKNCWNRTAPTKGTNGWYYNTAGGVCDAASGIASIELDATKKELVLNVLETASVGTAISINVGFAINNGANFDDYVRFAFDVTVTDPGRIVVANTIPAGDYSAFSIEFADYQEVIESCLGLTLSEFITACKEPGGPIALYMVDSESGEWNTTSDYTAGGSGIGYWLTSNLKVTNWSDDGSTGSVLFVETQENGDMVNIGRNPASTSGSVFNVNFVYALKEDNSKFVEFIVKATLE,not soluble
9,MSLAAPLTVGFSQVGSESGWRAAETNVAKSEAEKRGITLKIADGQQKQENQIKAVRSFVAQGVDAIFIAPVVATGWEPVLKEAKDAEIPVFLLDRSIDVKDKSLYMTTVTADNILEGKLIGDWLVKEVNGKPCNVVELQGTVGASVAIDRKKGFAEAIRNAPNIKIIRSQSGDFTRSKGKEVMESFIKAENNGKNICMVYAHNDDMVIGAIQAIKEAGLKPGKDILTGSIDGVPDIYKAMIDGEANASVELTPNMAGPAFDALEKYKKDGTMPEKLTLTKSTLYLPDTAKEELEKKKNMGYEGHHHHHH,soluble
10,MQNEQLLQEVGLNAYEAAAYLSLLKLGVSEASDIYRDSEVPYGKIYSVLESLAGKGFVEVQASRPKKFRAVDPELALDTFFERRKAEVEREMAFLKSSVEEAKSVLKAVPTQKRKDEFFWTTAITESEIKKFAVSIYSEVKKSVCVLPPVFGISIVFYLLPEITKAIDRGVRIKLMISPRFMALASVLSHQEGEILEKLKKGLDIRLVQNSNSCFGIVDDSIVVLFQPHPTDRDRVLSVVKVRDSGLAKNLKEEFDLLWNAGEKLDLQEELEDKQNPGKN,not soluble
11,MEHRDIVIVGGGMVGSALGAALSGKGLSVSVLEREAPAPFAPEQAPDLRVSAISPASAAFLQTIGAWGQALAMRAAPYRRMQVWERDEAAGTLFDAAEAGVPELGHIVENRVVQLAATEALLAKGDIDYRCPAVVSDIVYRPQASQLTLSDGSRLQARLLIAADGARSQVRDAAGIGVTGWDYPMHALVLSCRIDGGQQDITWQRFTPDGPQAFLPLSGDAASLVWYHRPEEVKRLLTLGDDELIAAVSQAFPRKLPGIRELAARGSFGLTRRHAQCYVKDGVALAGDAAHTIHPLAGQGVNLGFQDAAMLARTILDAHAKGEDWASGKTLVRYQRARKPANLAMQAGMDAFCYGFANDIGPLRLLRGLGLRLADKAGPLKREAIRYALGLRALEHHHHHH,not soluble
12,MSLGKQLAALPADEVVEQLELAVERFLIQRKIPDQTELGFILNHLHYQTKKGGAVGVQELNIDKNIHQIAVIGDLHGDAESTKYIFQKVLLNKTFMESGMAVFLGDYVDRGQHGINVLTSILAAKVVYGDRVITIRGNHESENLNRRYGFLDEVSRAYGHAFYHKTIAPFFKLLPVAYVASVTSHTTLANRILFVHGGLPRNATLDTLILRSKVDIPSSNDITDQRYTHSLENCLPEDAVQDILWSDPSQTVHGKDTLNDYTKNPRGAGILYSSEFYRKFATENRVLAMFRGHQVVKNGFRRDFFNHYTVFSSSDYVGMKNKGAYAVLDVRCMRTTITSEVDVIGLQNYKEVNLAHCIHAYPVVQKPENEGHHHHHH,soluble
13,APVISQISKDVVASVGDSVEFNCTVEEVGQLSVSWAKRPSESDTNSVVLSMRNILSLPDQRYNVTVTEGPKTGSAIYTFRIQNIEVSDMGPYECQVLVSATEKVTKKLSLQIKTPPVIAENTPKSTLVTEGQNLELTCHANGFPKPTISWAREHNAVMPAGGHLLAEPTLRIRSVHRMDRGGYYCIAQNGEGQPDKRLIRVEVEFRPQIAVQRPKIAQMVSHSAELECSVQGYPAPTVVWHKNGVPLQSSRHHEVANTASSSGTTTSVLRIDSVGEEDFGDYYCNATNKLGHADARLHLFQTVIPVPSLS,soluble
14,GPGSMGVALTHGLQRQRQQRTAAGHRSANRRGKRGLPPSLLGRLCMFVFVWMHLAEERERRECRLQGKKVFLEESSAGSSRSCMRRRHVCGVRACAGRRGCFASSVISLRCWTSSQSAVVAALTRLRVSSFSAPHLFRLARSAAPTREAASTKYFIDSLAAHSSRLIGVRAPLAHTHVHLGDCIDSTTSACVCGEEIHHHRAQPGVTVSLCTPFSLSHTPSTAWAPLLPADKHHMQASPVLAGAAVRRTATASVGSEPRTNLPFLINVVKKAQKSANTVVASTPALSSMSSTKEPPIQAAAFKPYPLLSPGEVKQAAGSSLLYKDDVCVLVNDAFPKSMVHCLVMPLDLRLQSLNALTKKDAPLLRHMLHVGDEYVRYLKTAVPHTYTARRFIAGFHALPSLPMLHMHVLSTDLDSPCLKNKKHYNSFATFFFLTGDRVLDDLERHGRVTLNQDVTRLRQMEEQDMKCLWCGTALPSVPAMKSHIQCCPQNKAVEKSS,not soluble
15,MISGLSHITLIVKDLNKTTAFLQNIFNAEEIYSSGDKTFSLSKEKFFLIAGLWICIMEGDSLQERTYNHIAFQIQSEEVDEYTERIKALGVEMKPERPRVQGEGRSIYFYDFDNHLFELHAGTLEQRLKRYHE,soluble
